Reference: US20260070987A1

Target: equine FcRn (large alpha subunit p51) / equine beta-2-microglobulin complex, biotinylated (equine) (UniProt P30441)
Assay: SPR (Biacore), pH 6

Chain of UniProt P30441 (P30441 21-118, one chain of several): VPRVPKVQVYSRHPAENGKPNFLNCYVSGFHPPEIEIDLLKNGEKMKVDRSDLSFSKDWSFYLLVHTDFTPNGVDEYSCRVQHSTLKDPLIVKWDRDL

| Binder | Kd [nM] |
| --- | --- |
| equine IgG1 T286I (antibody, part only; not given: variable domains, not shown: another chain or arm of the molecule) constant: ASTTAPKVFALAPGCGTTSDSTVALGCLVSGYFPEPVKVSWNSGSLTSGVHTFPSVLQSSGFYSLSSMVTVPASTWTSETYICNVVHAASNFKVDKRIEPIPDNHQKVCDMSKCPKCPAPELLGGPSVFIFPPNPKDTLMITRTPEVTCVVVDVSQENPDVKFNWYMDGVEVRIATTRPKEEQFNSTYRVVSVLRIQHQDWLSGKEFKCKVNNQALPQPIERTITKTKGRSQEPQVYVLAPHPDELSKSKVSVTCLVKDFYPPEINIEWQSNGQPELETKYSTTQAQQDSDGSYFLYSKLSVDRNRWQQGTTFTCGVMHEALHNHYTQKNVSKNPGK | 18.2 |
| equine IgG4 K311W (antibody, part only; not given: variable domains, not shown: another chain or arm of the molecule) constant: ASTTAPKVFPLASHSAATSGSTVALGCLVSSYFPEPVTVSWNSGALTSGVHTFPSVLQSSGLYSLSSMVTVPASSLKSQTYICNVAHPASSTKVDKKIVIKECNGGCPAECLQVGPSVFIFPPKPKDVLMISRTPTVTCVVVDVGHDFPDVQFNWYVDGVETHTATTEPKQEQFNSTYRVVSVLPIQHWDWLSGKEFKCKVNNKALPAPVERTISKPTGQPREPQVYVLAPHRDELSKNKVSVTCLVKDFYPTDIDIEWKSNGQPEPETKYSTTPAQLDSDGSYFLYSKLTVETNRWQQGTTFTCAVMHEALHNHYTEKSVSKSPGK | 27.1 |
| equine IgG4 K311Y (antibody, part only; not given: variable domains, not shown: another chain or arm of the molecule) constant: ASTTAPKVFPLASHSAATSGSTVALGCLVSSYFPEPVTVSWNSGALTSGVHTFPSVLQSSGLYSLSSMVTVPASSLKSQTYICNVAHPASSTKVDKKIVIKECNGGCPAECLQVGPSVFIFPPKPKDVLMISRTPTVTCVVVDVGHDFPDVQFNWYVDGVETHTATTEPKQEQFNSTYRVVSVLPIQHYDWLSGKEFKCKVNNKALPAPVERTISKPTGQPREPQVYVLAPHRDELSKNKVSVTCLVKDFYPTDIDIEWKSNGQPEPETKYSTTPAQLDSDGSYFLYSKLTVETNRWQQGTTFTCAVMHEALHNHYTEKSVSKSPGK | 21.3 |
| equine IgG4 A426C (antibody, part only; not given: variable domains, not shown: another chain or arm of the molecule) constant: ASTTAPKVFPLASHSAATSGSTVALGCLVSSYFPEPVTVSWNSGALTSGVHTFPSVLQSSGLYSLSSMVTVPASSLKSQTYICNVAHPASSTKVDKKIVIKECNGGCPAECLQVGPSVFIFPPKPKDVLMISRTPTVTCVVVDVGHDFPDVQFNWYVDGVETHTATTEPKQEQFNSTYRVVSVLPIQHKDWLSGKEFKCKVNNKALPAPVERTISKPTGQPREPQVYVLAPHRDELSKNKVSVTCLVKDFYPTDIDIEWKSNGQPEPETKYSTTPAQLDSDGSYFLYSKLTVETNRWQQGTTFTCCVMHEALHNHYTEKSVSKSPGK | 18.2 |
| equine IgG4 A426D (antibody, part only; not given: variable domains, not shown: another chain or arm of the molecule) constant: ASTTAPKVFPLASHSAATSGSTVALGCLVSSYFPEPVTVSWNSGALTSGVHTFPSVLQSSGLYSLSSMVTVPASSLKSQTYICNVAHPASSTKVDKKIVIKECNGGCPAECLQVGPSVFIFPPKPKDVLMISRTPTVTCVVVDVGHDFPDVQFNWYVDGVETHTATTEPKQEQFNSTYRVVSVLPIQHKDWLSGKEFKCKVNNKALPAPVERTISKPTGQPREPQVYVLAPHRDELSKNKVSVTCLVKDFYPTDIDIEWKSNGQPEPETKYSTTPAQLDSDGSYFLYSKLTVETNRWQQGTTFTCDVMHEALHNHYTEKSVSKSPGK | 15.5 |
| equine IgG4 A426E (antibody, part only; not given: variable domains, not shown: another chain or arm of the molecule) constant: ASTTAPKVFPLASHSAATSGSTVALGCLVSSYFPEPVTVSWNSGALTSGVHTFPSVLQSSGLYSLSSMVTVPASSLKSQTYICNVAHPASSTKVDKKIVIKECNGGCPAECLQVGPSVFIFPPKPKDVLMISRTPTVTCVVVDVGHDFPDVQFNWYVDGVETHTATTEPKQEQFNSTYRVVSVLPIQHKDWLSGKEFKCKVNNKALPAPVERTISKPTGQPREPQVYVLAPHRDELSKNKVSVTCLVKDFYPTDIDIEWKSNGQPEPETKYSTTPAQLDSDGSYFLYSKLTVETNRWQQGTTFTCEVMHEALHNHYTEKSVSKSPGK | 18.2 |
| equine IgG4 A426F (antibody, part only; not given: variable domains, not shown: another chain or arm of the molecule) constant: ASTTAPKVFPLASHSAATSGSTVALGCLVSSYFPEPVTVSWNSGALTSGVHTFPSVLQSSGLYSLSSMVTVPASSLKSQTYICNVAHPASSTKVDKKIVIKECNGGCPAECLQVGPSVFIFPPKPKDVLMISRTPTVTCVVVDVGHDFPDVQFNWYVDGVETHTATTEPKQEQFNSTYRVVSVLPIQHKDWLSGKEFKCKVNNKALPAPVERTISKPTGQPREPQVYVLAPHRDELSKNKVSVTCLVKDFYPTDIDIEWKSNGQPEPETKYSTTPAQLDSDGSYFLYSKLTVETNRWQQGTTFTCFVMHEALHNHYTEKSVSKSPGK | 17.6 |
| equine IgG4 A426G (antibody, part only; not given: variable domains, not shown: another chain or arm of the molecule) constant: ASTTAPKVFPLASHSAATSGSTVALGCLVSSYFPEPVTVSWNSGALTSGVHTFPSVLQSSGLYSLSSMVTVPASSLKSQTYICNVAHPASSTKVDKKIVIKECNGGCPAECLQVGPSVFIFPPKPKDVLMISRTPTVTCVVVDVGHDFPDVQFNWYVDGVETHTATTEPKQEQFNSTYRVVSVLPIQHKDWLSGKEFKCKVNNKALPAPVERTISKPTGQPREPQVYVLAPHRDELSKNKVSVTCLVKDFYPTDIDIEWKSNGQPEPETKYSTTPAQLDSDGSYFLYSKLTVETNRWQQGTTFTCGVMHEALHNHYTEKSVSKSPGK | 33.3 |
| equine IgG4 A426H (antibody, part only; not given: variable domains, not shown: another chain or arm of the molecule) constant: ASTTAPKVFPLASHSAATSGSTVALGCLVSSYFPEPVTVSWNSGALTSGVHTFPSVLQSSGLYSLSSMVTVPASSLKSQTYICNVAHPASSTKVDKKIVIKECNGGCPAECLQVGPSVFIFPPKPKDVLMISRTPTVTCVVVDVGHDFPDVQFNWYVDGVETHTATTEPKQEQFNSTYRVVSVLPIQHKDWLSGKEFKCKVNNKALPAPVERTISKPTGQPREPQVYVLAPHRDELSKNKVSVTCLVKDFYPTDIDIEWKSNGQPEPETKYSTTPAQLDSDGSYFLYSKLTVETNRWQQGTTFTCHVMHEALHNHYTEKSVSKSPGK | 17.8 |
| equine IgG4 A426I (antibody, part only; not given: variable domains, not shown: another chain or arm of the molecule) constant: ASTTAPKVFPLASHSAATSGSTVALGCLVSSYFPEPVTVSWNSGALTSGVHTFPSVLQSSGLYSLSSMVTVPASSLKSQTYICNVAHPASSTKVDKKIVIKECNGGCPAECLQVGPSVFIFPPKPKDVLMISRTPTVTCVVVDVGHDFPDVQFNWYVDGVETHTATTEPKQEQFNSTYRVVSVLPIQHKDWLSGKEFKCKVNNKALPAPVERTISKPTGQPREPQVYVLAPHRDELSKNKVSVTCLVKDFYPTDIDIEWKSNGQPEPETKYSTTPAQLDSDGSYFLYSKLTVETNRWQQGTTFTCIVMHEALHNHYTEKSVSKSPGK | 17.4 |
| equine IgG4 A426K (antibody, part only; not given: variable domains, not shown: another chain or arm of the molecule) constant: ASTTAPKVFPLASHSAATSGSTVALGCLVSSYFPEPVTVSWNSGALTSGVHTFPSVLQSSGLYSLSSMVTVPASSLKSQTYICNVAHPASSTKVDKKIVIKECNGGCPAECLQVGPSVFIFPPKPKDVLMISRTPTVTCVVVDVGHDFPDVQFNWYVDGVETHTATTEPKQEQFNSTYRVVSVLPIQHKDWLSGKEFKCKVNNKALPAPVERTISKPTGQPREPQVYVLAPHRDELSKNKVSVTCLVKDFYPTDIDIEWKSNGQPEPETKYSTTPAQLDSDGSYFLYSKLTVETNRWQQGTTFTCKVMHEALHNHYTEKSVSKSPGK | 14.5 |
| equine IgG1 T286K (antibody, part only; not given: variable domains, not shown: another chain or arm of the molecule) constant: ASTTAPKVFALAPGCGTTSDSTVALGCLVSGYFPEPVKVSWNSGSLTSGVHTFPSVLQSSGFYSLSSMVTVPASTWTSETYICNVVHAASNFKVDKRIEPIPDNHQKVCDMSKCPKCPAPELLGGPSVFIFPPNPKDTLMITRTPEVTCVVVDVSQENPDVKFNWYMDGVEVRKATTRPKEEQFNSTYRVVSVLRIQHQDWLSGKEFKCKVNNQALPQPIERTITKTKGRSQEPQVYVLAPHPDELSKSKVSVTCLVKDFYPPEINIEWQSNGQPELETKYSTTQAQQDSDGSYFLYSKLSVDRNRWQQGTTFTCGVMHEALHNHYTQKNVSKNPGK | 37.3 |
| equine IgG4 A426L (antibody, part only; not given: variable domains, not shown: another chain or arm of the molecule) constant: ASTTAPKVFPLASHSAATSGSTVALGCLVSSYFPEPVTVSWNSGALTSGVHTFPSVLQSSGLYSLSSMVTVPASSLKSQTYICNVAHPASSTKVDKKIVIKECNGGCPAECLQVGPSVFIFPPKPKDVLMISRTPTVTCVVVDVGHDFPDVQFNWYVDGVETHTATTEPKQEQFNSTYRVVSVLPIQHKDWLSGKEFKCKVNNKALPAPVERTISKPTGQPREPQVYVLAPHRDELSKNKVSVTCLVKDFYPTDIDIEWKSNGQPEPETKYSTTPAQLDSDGSYFLYSKLTVETNRWQQGTTFTCLVMHEALHNHYTEKSVSKSPGK | 17.4 |
| equine IgG4 A426M (antibody, part only; not given: Variable domains, not shown: another chain or arm of the molecule) constant: ASTTAPKVFPLASHSAATSGSTVALGCLVSSYFPEPVTVSWNSGALTSGVHTFPSVLQSSGLYSLSSMVTVPASSLKSQTYICNVAHPASSTKVDKKIVIKECNGGCPAECLQVGPSVFIFPPKPKDVLMISRTPTVTCVVVDVGHDFPDVQFNWYVDGVETHTATTEPKQEQFNSTYRVVSVLPIQHKDWLSGKEFKCKVNNKALPAPVERTISKPTGQPREPQVYVLAPHRDELSKNKVSVTCLVKDFYPTDIDIEWKSNGQPEPETKYSTTPAQLDSDGSYFLYSKLTVETNRWQQGTTFTCMVMHEALHNHYTEKSVSKSPGK | 18.5 |
| equine IgG4 A426N (antibody, part only; not given: variable domains, not shown: another chain or arm of the molecule) constant: ASTTAPKVFPLASHSAATSGSTVALGCLVSSYFPEPVTVSWNSGALTSGVHTFPSVLQSSGLYSLSSMVTVPASSLKSQTYICNVAHPASSTKVDKKIVIKECNGGCPAECLQVGPSVFIFPPKPKDVLMISRTPTVTCVVVDVGHDFPDVQFNWYVDGVETHTATTEPKQEQFNSTYRVVSVLPIQHKDWLSGKEFKCKVNNKALPAPVERTISKPTGQPREPQVYVLAPHRDELSKNKVSVTCLVKDFYPTDIDIEWKSNGQPEPETKYSTTPAQLDSDGSYFLYSKLTVETNRWQQGTTFTCNVMHEALHNHYTEKSVSKSPGK | 18.7 |
| equine IgG4 A426P (antibody, part only; not given: Variable domains, not shown: another chain or arm of the molecule) constant: ASTTAPKVFPLASHSAATSGSTVALGCLVSSYFPEPVTVSWNSGALTSGVHTFPSVLQSSGLYSLSSMVTVPASSLKSQTYICNVAHPASSTKVDKKIVIKECNGGCPAECLQVGPSVFIFPPKPKDVLMISRTPTVTCVVVDVGHDFPDVQFNWYVDGVETHTATTEPKQEQFNSTYRVVSVLPIQHKDWLSGKEFKCKVNNKALPAPVERTISKPTGQPREPQVYVLAPHRDELSKNKVSVTCLVKDFYPTDIDIEWKSNGQPEPETKYSTTPAQLDSDGSYFLYSKLTVETNRWQQGTTFTCPVMHEALHNHYTEKSVSKSPGK | 9.8 |
